Test results from EP1869192B1 (MedImmune, LLC, dated 2016).
Substitutions are numbered along the chain they refer to. Each block holds one molecule with its values, some of them ahead of it.

Tests used:
[1] = molecular target: Human EphA2-Fc fusion protein (human EphA2 fused with the Fc portion of a human IgG1) (human) (UniProt P29317); assay: single point ELISA: 1 ug goat anti-human Fd capture, biotinylated human EphA2-Fc 300-600 ng/well, neutravidin-HRP
[2] = molecular target: Human EphA2-Fc fusion protein (human EphA2 fused with the Fc portion of a human IgG1) (human) (UniProt P29317); assay: SPR (BIAcore), human IgG1 format on immobilized EphA2-Fc
[3] = molecular target: Human EphA2-Fc fusion protein (human EphA2 fused with the Fc portion of a human IgG1) (human) (UniProt P29317); assay: single point ELISA: periplasmic extract of 45 ml culture, 1 ug/well goat anti-human Fd capture, biotinylated EphA2-Fc
[4] = molecular target: Human EphA2-Fc fusion protein (human EphA2 fused with the Fc portion of a human IgG1) (human) (UniProt P29317); assay: SPR (BIAcore 3000), EphA2-Fc amine-coupled to CM5 chip (about 500 RU), IgG in solution, 25 C, KD = koff/kon
[5] = molecular target: Human EphA2-Fc fusion protein (human EphA2 fused with the Fc portion of a human IgG1) (human) (UniProt P29317); assay: SPR (BIAcore 3000), EphA2-Fc amine-coupled to CM5 chip (about 500 RU), IgG in solution, 25 C, 1:1 Langmuir fit
[6] = molecular target: Human EphA2-Fc fusion protein (human EphA2 fused with the Fc portion of a human IgG1) (human) (UniProt P29317); assay: second single point ELISA: periplasmic extract of 15 ml culture, 1 ug/well goat anti-human Fd capture, biotinylated EphA2-Fc
[7] = molecular target: Human EphA2-Fc fusion protein (human EphA2 fused with the Fc portion of a human IgG1) (human) (UniProt P29317); assay: single point ELISA: periplasmic Fab captured on 1 ug goat anti-human Fd, biotinylated human EphA2-Fc 300-600 ng/well, neutravidin-HRP
[8] = molecular target: T1, Human EphA2-Fc fusion protein (human EphA2 fused with the Fc portion of a human IgG1) (human, UniProt P29317 24-534, limits assumed); assay: SPR (BIAcore 3000), EphA2-Fc amine-coupled to CM5 chip (about 500 RU), IgG in solution, 25 C, KD = koff/kon
T1 construct: also called biotinylated human EphA2-Fc; not shown: Fc portion of a human IgG1

[9] = molecular target: T1, Human EphA2-Fc fusion protein (human …); assay: SPR (BIAcore 3000), EphA2-Fc amine-coupled to CM5 chip (about 500 RU), IgG in solution, 25 C, 1:1 Langmuir fit
[10] = molecular target: Human EphA2-Fc fusion protein (human EphA2 fused with the Fc portion of a human IgG1) (human) (UniProt P29317); assay: single point ELISA: periplasmic Fab captured on 500 ng goat anti-human Fab, biotinylated human EphA2-Fc 300 ng/well, neutravidin-HRP
[11] = molecular target: Human EphA2-Fc fusion protein (human EphA2 fused with the Fc portion of a human IgG1) (human) (UniProt P29317); assay: SPR (BIAcore 3000), EphA2-Fc amine-coupled to CM5 chip, IgG in solution, 25 C, KD = koff/kon
[12] = molecular target: Human EphA2-Fc fusion protein (human EphA2 fused with the Fc portion of a human IgG1) (human) (UniProt P29317); assay: SPR (BIAcore 3000), EphA2-Fc amine-coupled to CM5 chip, IgG in solution, 25 C, 1:1 Langmuir fit

T1 sequence (P29317 24-534 limits assumed): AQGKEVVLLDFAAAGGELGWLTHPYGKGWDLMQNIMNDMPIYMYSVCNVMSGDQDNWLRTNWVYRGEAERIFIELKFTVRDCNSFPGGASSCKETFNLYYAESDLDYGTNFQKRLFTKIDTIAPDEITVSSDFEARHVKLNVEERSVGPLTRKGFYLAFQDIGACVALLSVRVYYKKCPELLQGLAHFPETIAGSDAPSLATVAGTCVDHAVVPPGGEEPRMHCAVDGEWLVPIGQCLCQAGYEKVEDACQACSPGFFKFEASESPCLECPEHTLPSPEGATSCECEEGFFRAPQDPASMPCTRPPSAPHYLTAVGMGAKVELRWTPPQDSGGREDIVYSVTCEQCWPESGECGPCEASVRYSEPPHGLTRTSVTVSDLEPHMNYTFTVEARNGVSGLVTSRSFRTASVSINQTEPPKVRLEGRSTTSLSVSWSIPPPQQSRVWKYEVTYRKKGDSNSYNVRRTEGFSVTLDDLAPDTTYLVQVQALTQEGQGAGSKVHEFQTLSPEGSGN
Human EphA2-Fc fusion protein (human EphA2 fused with the Fc portion of a human IgG1) (human), sequence (P29317 24-534 limits assumed): as above

B2: Fab "corrected" clone 4H5 (VH-4H5/VL-"corrected" 4H5) (Fab, from another filing, V domains shown)
VH: QVQLLESGGGLVQPGGSLRLSCAASGFTFSSYTMSWVRQAPGQALEWMGTISSGGTYTYYPDSVKGRFTISRDNAKNSLYLQMNSLRAEDTAVYYCAREAIFTYWGRGTLVTVSS
VL: DIQLTQSPSSLSASVGDRVTITCKASQDINNYLSWYQQKPGQAPRLLIYRANRLVDGVPDRFSGSGYGTDFTLTINNIESEDAAYYFCLKYDEFPYTFGQGTKVEIK
[specific OD450/background OD450] ratio [3]: 11

B4: Fab clone 4H5 (VH-4H5/VL-4H5) (Fab, from another filing, V domains shown)
VH: B2 VH
VL: B2 VL with E93V
[specific OD450/background OD450] ratio [3]: 23 | [specific OD450/background OD450] ratio [6]: 30 | OD450 [7]: 3 OD450 | fold signal above background of the irrelevant antibody [7]: 10 fold

B6: Fab clone VH-6H11/VL-8G7 (Fab, from another filing, V domains shown)
VH: EVQLVESGGGLVQPGGSLRLSCAASGFTFSDYSMNWVRQAPGKGLEWVAFIRNKANDYTTEYSASVKGRFTISRDNSKNTLYLQMNSLRAEDTAMYYCARYPRYHAMDSWGQGTLVTVSS
VL: EIVLTQSPATLSVSPGERATLSCRASQSISNNLHWYQQKPGKAPKSLIYYVFQSISGVPSRFSGSGSGTDFTLTINSLEAEDAATYYCQQSNSWPLTFGGGTKVDIK
OD450 [10]: 2.5 OD450

B8: Fab clone VH-2G6/VL-12C8 (Fab, from another filing, V domains shown)
VH: EVQLVESGGGVVRPGGSLRLSCAASGFTVSDYSMNWVRQAPGKGLEWIGFIRNKANDYTTEYSASVKGRFTISRDDSKNTLYLQMNSLKTEDTAVYYCTTYPRYHAMDSWGQGTMVTVSS
VL: AIQLTQSPSSLSASVGDRVTITCRASQSISNNLHWYLQKPGQSPQLLIYYVFQSISGVPSRFSGSGSGTDFTLTISSLQPEDFATYYCQQSNSWPLTFGGGTKLEIK
OD450 [10]: 2.8 OD450

B9: VH-2G6/VL-12C8 as full length human IgG1 (antibody, from another filing, V domains shown)
VH: B8 VH
VL: B8 VL
fold decrease of avidity against parental mAb B233 [2]: 10 fold | Kd [11]: 3 nM | koff [12]: 0.00019 s⁻¹ | kon [12]: 64000 M⁻¹ s⁻¹

Further lines, results first:

OD450 (background signal) [1]: 0.3 OD450
Molecule: irrelevant antibody (Example 2)

fold increase of avidity against parental mAb EA2 [2]: 90 fold
B1: VH-4H5/VL-4H5 as human IgG1 (antibody, from another filing, V domains shown)
VH: B2 VH
VL: B2 VL with E93V

fold increase of avidity against parental mAb EA2 [2]: 4 fold | Kd [4]: 1.4 nM | koff [5]: 0.00105 s⁻¹ | kon [5]: 750000 M⁻¹ s⁻¹
B3: VH-4H5/VL-"corrected" 4H5 as human IgG1 (antibody, from another filing, V domains shown)
VH: B2 VH
VL: B2 VL

Kd [8]: 5.94 nM | koff [9]: 0.00307 s⁻¹ | kon [9]: 517000 M⁻¹ s⁻¹
B5: mAb EA2 (murine anti-human EphA2 monoclonal antibody) (antibody, V domains shown)
VH: DVKLVESGGGLVKPGGSLKLSCAASGFTFSSYTMSWVRQTPEKRLEWVATISSGGTYTYYPDSVKGRFTISRDNAKNTLYLQMSSLKSEDTAMYYCTREAIFTYWGQGTLVTVSA
VL: DIKMTQSPSSMYASLGERVTITCKASQDINNYLSWFQQKPGKSPKTLIYRANRVDGVPSRFSGSGSGQDYSLTISSLEYEDMGIYYCLKYDEFPYTFGGGTKLEIK

fold decrease of avidity against parental mAb B233 [2]: 6 fold | Kd [11]: 1.9 nM | koff [12]: 0.00018 s⁻¹ | kon [12]: 96000 M⁻¹ s⁻¹
B7: VH-6H11/VL-8G7 as full length human IgG1 (antibody, from another filing, V domains shown)
VH: B6 VH
VL: B6 VL
